Measured values as given in patent US20080004209.

Assays:
[1] = tested on: alkylated and reduced resistin
Chain of alkylated and reduced resistin (Q9HD89 19-108): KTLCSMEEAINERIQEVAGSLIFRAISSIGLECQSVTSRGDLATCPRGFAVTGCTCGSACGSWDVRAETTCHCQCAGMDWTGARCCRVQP

Chain of trypsin (P00761 9-231): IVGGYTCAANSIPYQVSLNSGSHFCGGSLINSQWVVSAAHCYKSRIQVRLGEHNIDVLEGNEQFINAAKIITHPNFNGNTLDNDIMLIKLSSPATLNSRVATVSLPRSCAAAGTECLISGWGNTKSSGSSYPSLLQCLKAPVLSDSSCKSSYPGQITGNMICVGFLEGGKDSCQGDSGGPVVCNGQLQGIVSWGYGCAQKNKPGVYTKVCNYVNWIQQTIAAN
Chain of native resistin (Q9HD89 19-108): as the sequence (Q9HD89 19-108) above

| Substance | cleavage of resistin in vitro (24 hr digestion, SDS-PAGE) [1] | proteolytic cleavage (preliminary protease digestion experiments, data not shown) (native resistin) |
| --- | --- | --- |
| HIV-1 protease | incubation with HIV-1 protease, cathepsin D and cathepsin E resulted in the appearance of a ca. 7 kDa resistin cleavage product |  |
| cathepsin D | incubation with HIV-1 protease, cathepsin D and cathepsin E resulted in the appearance of a ca. 7 kDa resistin cleavage product |  |
| cathepsin E | incubation with HIV-1 protease, cathepsin D and cathepsin E resulted in the appearance of a ca. 7 kDa resistin cleavage product |  |
| trypsin | resistin was completely degraded by the non-specific protease, trypsin | native resistin was refractory to proteolytic cleavage by trypsin, suggestive of a highly folded state (data not shown) |
